Data: patent US20230002480A1

Experiments:
Test in all cases: cell-based or functional assay
[1] = biological target: MuLV envelope (negative control pseudovirus) (MuLV)
[2] = biological target: HIV-1 Env of pseudovirus ZM135M.PL10a (clade C) (HIV-1)
[3] = biological target: HIV-1 Env of pseudovirus ZM53M.PB12 (clade C) (HIV-1)
[4] = biological target: HIV-1 Env of pseudovirus HIV-16845-2.22 (clade C) (HIV-1)
[5] = biological target: HIV-1 Env of pseudovirus TRJO4551.58 (clade B) (HIV-1)
[6] = biological target: HIV-1 Env of pseudovirus CNE58 (clade BC) (HIV-1)
[7] = biological target: HIV-1 Env of pseudovirus Du156.12 (clade C) (HIV-1)
[8] = biological target: HIV-1 Env of pseudovirus ZM247v1(Rev-) (clade C (T/F)) (HIV-1)
[9] = biological target: HIV-1 Env of pseudovirus CNE52 (clade BC) (HIV-1)
[10] = biological target: HIV-1 Env of pseudovirus Ce0393_C3 (clade C (T/F)) (HIV-1)
[11] = biological target: HIV-1 Env of pseudovirus 246F C1G (clade C (T/F)) (HIV-1)
[12] = biological target: HIV-1 Env of pseudovirus AC10.0.29 (clade B) (HIV-1)
[13] = biological target: HIV-1 Env of pseudovirus CAP45.2.00.G3 (clade C) (HIV-1)
[14] = biological target: HIV-1 Env of pseudovirus QH0692.42 (clade B) (HIV-1)
[15] = biological target: HIV-1 Env of pseudovirus Q769.d22 (clade A) (HIV-1)
[16] = biological target: HIV-1 Env of pseudovirus Ce703010054_2A2 (clade C (T/F)) (HIV-1)
[17] = biological target: HIV-1 Env of pseudovirus REJO4541.67 (clade B) (HIV-1)
[18] = biological target: HIV-1 Env of pseudovirus MS208.A1 (clade A) (HIV-1)
[19] = biological target: HIV-1 Env pseudovirus 263-8 (HIV-1)
[20] = biological target: HIV-1 Env pseudovirus T278-50 (HIV-1)
[21] = biological target: HIV-1 Env pseudovirus T255-34 (HIV-1)
[22] = biological target: HIV-1 Env pseudovirus 235-47 (HIV-1)
[23] = biological target: HIV-1 Env pseudovirus 6041.v3.c23 (HIV-1)
[24] = biological target: HIV-1 Env pseudovirus X1254_c3 (HIV-1)
[25] = biological target: HIV-1 Env pseudovirus C2101.c01 (HIV-1)
[26] = biological target: HIV-1 Env pseudovirus 231965.c01 (HIV-1)
[27] = biological target: HIV-1 Env pseudovirus P0402_c2_11 (HIV-1)

Work on N49P6 (antibody) yielded an IC50 [1] of over 50 µg/mL, an IC80 [1] of over 50 µg/mL and an MPI [1] of 0.
For N49P7 (antibody), the IC50, neutralization titer in TZM.bl cells [1] was over 50 µg/mL, the IC80, neutralization titer in TZM.bl cells [1] was over 50 µg/mL and the MPI, neutralization in TZM.bl cells [1] was 9.
In the case of N49P7.1 (antibody), the IC50, neutralization titer in TZM.bl cells [1] is reported as over 50 µg/mL, the IC80, neutralization titer in TZM.bl cells [1] is reported as over 50 µg/mL and the MPI, neutralization in TZM.bl cells [1] is reported as 4.
N49P7.2 (antibody) gave an IC50 [2] of 0.596 µg/mL, an IC80 [2] of 2.8 µg/mL and an MPI [2] of 99. The IC50 [3] was 0.477 µg/mL, the IC80 [3] was 1.73 µg/mL and the MPI [3] was 100. For the same substance, the IC50 [4] was 3.91 µg/mL, the IC80 [4] was 18.2 µg/mL and the MPI [4] was 98. The IC50 [5] was 0.21 µg/mL, the IC80 [5] was 0.673 µg/mL and the MPI [5] was 100. It also gave an IC50 [6] of 0.045 µg/mL, an IC80 [6] of 0.129 µg/mL and an MPI [6] of 100. It also gave an IC50 [1] of over 50 µg/mL, an IC80 [1] of over 50 µg/mL and an MPI [1] of 4. The IC50 [7] was 0.058 µg/mL, the IC80 [7] was 0.21 µg/mL and the MPI [7] was 100. For the same substance, the IC50 [8] was 0.177 µg/mL, the IC80 [8] was 2.5 µg/mL and the MPI [8] was 96. The IC50 [9] was 0.03 µg/mL, the IC80 [9] was 0.088 µg/mL and the MPI [9] was 100. It also gave an IC50 [10] of 0.137 µg/mL, an IC80 [10] of 0.368 µg/mL and an MPI [10] of 100. For the same substance, the IC50 [11] was 0.049 µg/mL, the IC80 [11] was 0.192 µg/mL and the MPI [11] was 100. For the same substance, the IC50 [12] was 44.2 µg/mL, the IC80 [12] was over 50 µg/mL and the MPI [12] was 53. For the same substance, the IC50 [13] was 0.162 µg/mL, the IC80 [13] was 2.49 µg/mL and the MPI [13] was 95. For the same substance, the IC50 [14] was 1.26 µg/mL, the IC80 [14] was 4.42 µg/mL and the MPI [14] was 100. For the same substance, the IC50 [15] was 0.029 µg/mL, the IC80 [15] was 0.14 µg/mL and the MPI [15] was 100. The IC50 [16] was 0.124 µg/mL, the IC80 [16] was 0.576 µg/mL and the MPI [16] was 100. It also gave an IC50 [17] of 0.018 µg/mL, an IC80 [17] of 0.08 µg/mL and an MPI [17] of 100. The IC50 [18] was 0.186 µg/mL, the IC80 [18] was 0.966 µg/mL and the MPI [18] was 100.
In the case of N49P9 (antibody), the IC50 [19] is reported as 0.032 µg/mL, the IC80 [19] is reported as 0.161 µg/mL and the MPI [19] is reported as 100. For the same substance, the IC50 [20] was over 50 µg/mL, the IC80 [20] was over 50 µg/mL and the MPI [20] was 25. The IC50 [21] was 0.051 µg/mL, the IC80 [21] was 0.247 µg/mL and the MPI [21] was 100. For the same substance, the IC50 [22] was 0.072 µg/mL, the IC80 [22] was 0.271 µg/mL and the MPI [22] was 98. The IC50 [23] was 0.089 µg/mL, the IC80 [23] was 0.777 µg/mL and the MPI [23] was 95. It also gave an IC50 [24] of 0.04 µg/mL, an IC80 [24] of 0.104 µg/mL and an MPI [24] of 100. For the same substance, the IC50 [25] was 0.051 µg/mL, the IC80 [25] was 0.209 µg/mL and the MPI [25] was 100. It also gave an IC50 [26] of 0.253 µg/mL, an IC80 [26] of 1.16 µg/mL and an MPI [26] of 100. The IC50 [27] was 0.028 µg/mL, the IC80 [27] was 0.085 µg/mL and the MPI [27] was 100.
In the case of N49P11 (antibody), the IC50 [2] is reported as 3.97 µg/mL, the IC80 [2] is reported as 16.6 µg/mL and the MPI [2] is reported as 100. The IC50 [3] was 1.05 µg/mL, the IC80 [3] was 6.53 µg/mL and the MPI [3] was 100. It also gave an IC50 [4] of 1.72 µg/mL, an IC80 [4] of 8.15 µg/mL and an MPI [4] of 100. For the same substance, the IC50 [5] was 0.183 µg/mL, the IC80 [5] was 0.656 µg/mL and the MPI [5] was 100. For the same substance, the IC50 [6] was 0.038 µg/mL, the IC80 [6] was 0.135 µg/mL and the MPI [6] was 100. For the same substance, the IC50 [7] was 2.4 µg/mL, the IC80 [7] was 12 µg/mL and the MPI [7] was 100. The IC50 [8] was 7.48 µg/mL, the IC80 [8] was 21.5 µg/mL and the MPI [8] was 100. For the same substance, the IC50 [9] was 0.06 µg/mL, the IC80 [9] was 0.307 µg/mL and the MPI [9] was 100. The IC50 [10] was 1.51 µg/mL, the IC80 [10] was 9.71 µg/mL and the MPI [10] was 100. For the same substance, the IC50 [11] was 8.48 µg/mL, the IC80 [11] was 20.9 µg/mL and the MPI [11] was 100. It also gave an IC50 [12] of 5.52 µg/mL, an IC80 [12] of 20 µg/mL and an MPI [12] of 100. It also gave an IC50 [13] of 5.25 µg/mL, an IC80 [13] of 24 µg/mL and an MPI [13] of 100. It also gave an IC50 [14] of 0.55 µg/mL, an IC80 [14] of 2.65 µg/mL and an MPI [14] of 100. It also gave an IC50 [15] of 0.048 µg/mL, an IC80 [15] of 0.308 µg/mL and an MPI [15] of 100. It also gave an IC50 [16] of 1.42 µg/mL, an IC80 [16] of 7.51 µg/mL and an MPI [16] of 100. For the same substance, the IC50 [17] was 10.8 µg/mL, the IC80 [17] was 27.1 µg/mL and the MPI [17] was 100. The IC50 [18] was 0.259 µg/mL, the IC80 [18] was 1.94 µg/mL and the MPI [18] was 100.
With N49P18.1 (antibody) the IC50 [2] was over 50 µg/mL, the IC80 [2] was over 50 µg/mL and the MPI [2] was 46. The IC50 [3] was 1.3 µg/mL, the IC80 [3] was 4.51 µg/mL and the MPI [3] was 99. The IC50 [4] was over 50 µg/mL, the IC80 [4] was over 50 µg/mL and the MPI [4] was 23. It also gave an IC50 [5] of 4.44 µg/mL, an IC80 [5] of 14.7 µg/mL and an MPI [5] of 99. The IC50 [6] was 1.92 µg/mL, the IC80 [6] was 5.26 µg/mL and the MPI [6] was 100. For the same substance, the IC50 [1] was over 50 µg/mL, the IC80 [1] was over 50 µg/mL and the MPI [1] was 0. For the same substance, the IC50 [7] was 1.88 µg/mL, the IC80 [7] was 6.81 µg/mL and the MPI [7] was 100. It also gave an IC50 [8] of 10.9 µg/mL, an IC80 [8] of over 50 µg/mL and an MPI [8] of 79. The IC50 [9] was 2.46 µg/mL, the IC80 [9] was 6.65 µg/mL and the MPI [9] was 100. It also gave an IC50 [10] of 10.3 µg/mL, an IC80 [10] of 24.8 µg/mL and an MPI [10] of 92. The IC50 [11] was 3.4 µg/mL, the IC80 [11] was 20.2 µg/mL and the MPI [11] was 97. It also gave an IC50 [12] of 20 µg/mL, an IC80 [12] of over 50 µg/mL and an MPI [12] of 71. It also gave an IC50 [13] of 5.14 µg/mL, an IC80 [13] of 33.1 µg/mL and an MPI [13] of 88. The IC50 [14] was over 50 µg/mL, the IC80 [14] was over 50 µg/mL and the MPI [14] was 43. For the same substance, the IC50 [15] was 4.92 µg/mL, the IC80 [15] was 18.3 µg/mL and the MPI [15] was 97. It also gave an IC50 [16] of 4.15 µg/mL, an IC80 [16] of 11.6 µg/mL and an MPI [16] of 98. The IC50 [17] was 4.08 µg/mL, the IC80 [17] was 30.1 µg/mL and the MPI [17] was 89. The IC50 [18] was 8.31 µg/mL, the IC80 [18] was 33.3 µg/mL and the MPI [18] was 88.
